Seven substances from patent US6001657 can be followed below.

The subject of series [1] is anti-quadruplex monoclonal autoantibody me^v-alphaQ1 (Mus musculus). Nature of the series: filter. The note with it: RIFB, Scatchard, TEP buffer 150 mM KCl, 37 C.
Series [2] has the same test system. Nature of the series: FP filter. The note with it: nitrocellulose filter binding (RIFB), Scatchard; TEP buffer 50 mM Tris pH 7.4, 5 mM EDTA, 150 mM KCl, 37 C; Ka 2.7e6 M^-1 in table (text prints 2.7e5).

As for TGGGG [d(TG4)4 quadruplex], the Kd in series [1] (Ka 2.5e6 M^-1) worked out at 400 nM.

As to “TTGGGGTTGGGGTTGGGGTTGGGG [(TET4)4 quadruplex]”, in series [2], the Kd was found to be 370 nM.

The substance CGCGGGGGCG [d(CGC G4 GCG)4 quadruplex] registered a Kd in series [1] (Ka 1.6e6 M^-1) of 630 nM.

“CGCGCGCGCG (double strand) [d(CG5)2 duplex]” came in with a dissociation constant Kd in series [1] (Ka 3.8e5 M^-1, negative control in screening) of 2600 nM.

With “GGGGTTTGGGGTTTCCCC [d(G4T3G4T3C4) triplex]”, the Kd in series [1] (Ka 6.8e5 M^-1) worked out at 1500 nM.

Take “CCCCTTTGGGGTTTGGGG [d(C4T3G4T3G4) triplex]”: in series [1] (Ka 5.0e5 M^-1), the Kd was 2000 nM.

In series [1] (Ka 4.0e5 M^-1), poly r(G) displayed a dissociation constant Kd of 2500 nM.

One may read the Kd as the concentration at which binding is half-saturated. A high value points to weaker binding.
